Results on two molecules are retold here after article PMC8247761, “BZR1 Regulates Brassinosteroid-Mediated Activation of AMT1;2 in Rice”.

For series [1], the target named is T1, His:BZR1 (Oryza sativa (rice), UniProt Q7XI96 1-298).
T1 sequence: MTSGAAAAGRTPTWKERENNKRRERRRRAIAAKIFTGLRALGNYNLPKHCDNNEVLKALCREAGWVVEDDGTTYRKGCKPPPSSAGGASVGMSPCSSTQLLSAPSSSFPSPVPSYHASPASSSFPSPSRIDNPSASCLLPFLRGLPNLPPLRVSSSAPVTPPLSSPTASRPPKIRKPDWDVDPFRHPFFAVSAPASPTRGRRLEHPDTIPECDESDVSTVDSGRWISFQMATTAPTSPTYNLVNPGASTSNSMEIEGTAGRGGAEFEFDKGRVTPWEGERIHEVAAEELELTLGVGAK
As to the kind of experiment: EMSA; slightly weaker than probe B; EMSA: 1 ug His:BZR1, 40k cpm 32P-labeled probe; buffer, salt, pH and temperature not given (protocol of Je et al., 2010). The note with it: protein: recombinant; tags: His (pET28a(+)); chain copies: 2; label: 32P; blunt.

For series [2], the target named is T1, His:BZR1. As to the kind of experiment: EMSA; stronger than probe A; EMSA: 1 ug His:BZR1, 40k cpm 32P-labeled probe; buffer, salt, pH and temperature not given (protocol of Je et al., 2010). The note with it: protein: recombinant; tags: His (pET28a(+)); chain copies: 2; label: 32P; blunt.

B1: probe A (BRRE A, AMT1;2 promoter P4) (dsDNA)
DNA 1: GTCTCACCGGGCTGCGTGCGTACGCCGATA
DNA 2: TATCGGCGTACGCACGCAGCCCGGTGAGAC
With B1, the binding result in the series with His:BZR1 [1] was “binds”.

B2: probe B (BRRE B, AMT1;2 promoter P4) (dsDNA)
DNA 1: TGGTCGCATCGTCGTGCGTGAGCTGCCTATCG
DNA 2: CGATAGGCAGCTCACGCACGACGATGCGACCA
For the molecule B2, the binding result with His:BZR1 [2] is reported as “binds”.
